Bridges are numbered along the chain shown (N, C = ends). Where no end group is shown, it is not given here.

One experiment addresses wtEGFR-FLAG (human) (UniProt P00533). Description: FACS, Ba/F3 cells; reference M2 anti-FLAG.
Experiment [1] addresses C271A/C283A EGFR mutant (human) (UniProt P00533). Description: FACS, Ba/F3 cells, four clones; reference M2 anti-FLAG.
The target of experiment [2] is wild-type epidermal growth factor receptor (wtEGFR) (human) (UniProt P00533). Briefly: Scatchard, A431 cells.
For experiment [3], the target named is T1, EGFR peptide 287-302 (mAb806 peptide epitope) (human, disulfide 1-16).
T1 peptide: CGADSYEMEEDGVRKC
Briefly: BIAcore, immobilised peptide, antibody 200 nM. A general note: SPR reads the build-up and loss of mass on a sensor chip optically.

Regarding 528 antibody, the ratio of antibody binding mAb 528/M2 (ratio of median fluorescence) with wtEGFR-FLAG (human) was determined as 1.37; in experiment [1], 1.08. The receptors per cell (receptors per cell) in experiment [2] was determined as 2e+06.

B1: mAb1133 (antibody, V domains shown)
VH: DVQLQGSGPSLVKPSQSLSLTCTVTGYSITSDYAWNWIRQFPGNKLEWMGYISYSGNTRYNPSLRSRISITRDTSKNQFFLQLNSVTTEDTATYYCATAGRGFPYWGQGTLVTVSA
VL: DILMTQSPSSMSVSLGDTVNITCHSSQDINSNIGWLQQKPGKSFKGLIYHGTNLDDGVPSRFSGSGSGADYSLTISSLESEDFADYYCVQYGQFPWTFGGGTKLEIKR
notes: murine IgG2a; also called 1133 antibody; clone 1133
Regarding B1, the “maximal binding (RU)” value in experiment [3] was 800 RU.

For the origin of these results see US20100056762A1 (published 2010).
